The values that follow come from PMC6050581 (ACS infectious diseases, 2018).

First the molecules themselves.
B2: W2S4 peptide (human CD11a-based) (peptide)
peptide: Ac-YLSGLCYLFRQNLQGPML-NH2
B3: leukotoxin (LtxA) of Aggregatibacter actinomycetemcomitans (natural protein)
chain: MATTTLPNTKQQAAQFANSVADRAKENIDAAKEQLQKALDKLGKTGKKLTLYIPKNYKKGNGLTALIKAAQKLGIEVYHEGKDGPALTNGILNTGKKLLGLTERGLTLFAPELDKWIQGNKHLSNSVGSTGNLTKAIDKVQSVLGTLQAFLNTAFSGMDLDALIKARQNGKNVTDVQLAKASLNLINELIGTISSITNNVDTFSKQLNKLGEALGQVKHFGSFGDKLKNLPKLGNLGKGLGALSGVLSAISAALLLANKDADTATKAAAAAELTNKVLGNIGKAITQYLIAQRAAAGLSTTGPVAGLIASVVSLAISPLSFLGIAKQFDRARMLEEYSKRFKKFGYNGDSLLGQFYKNTGIADAAITTINTVLSAIAAGVGAASAGSLVGAPIGLLVSAITSLISGILDASKQAVFEHIANQLADKIKAWENKYGKNYFENGYDARHSAFLEDSLKLFNELREKYKTENILSITQQGWDQRIGELAGITRNGDRIQSGKAYVDYLKKGEELAKHSDKFTKQILDPIKGNIDLSGIKGSTTLTFLNPLLTAGKEERKTRQSGKYEFITELKVKGRTDWKVKGVPNSNGVYDFSNLIQHAVTRDNKVLEARLIANLGAKDDYVFVGSGSTIVNAGDGYDVVDYSKGRTGALTIDGRNATKAGQYKVERDLSGTQVLQETVSKQETKRGKVTDLLEYRNYKLDYYYTNKGFKAHDELNSVEEIIGSTLRDKFYGSKFNDVFHGHDGDDLIYGYDGDDRLYGDNGNDEIHGGQGNDKLYGGAGNDRLFGEYGNNYLDGGEGDDHLEGGNGSDILRGGSGNDKLFGNQGDDLLDGGEGDDQLAGGEGNDIYVYRKEYGHHTITEHSGDKDKLSLANINLKDVSFERNGNDLLLKTNNRTAVTFKGWFSKPNSSAGLDEYQRKLLEYAPEKDRARLKRQFELQRGKVDKSLNNKVEEIIGKDGERITSQDIDNLFDKSGNKKTISPQELAGLIKNKGKSSSLMSSSRSSSMLTQKSGLSNDISRIISATSGFGSSGKALSASPLQTNNNFNSYANSLATTA

Assay [1] has as its target B3. Put plainly: SPR. In general terms: In SPR one partner is held on a chip, and binding of the other changes the refractive index at the surface.
Assay [2] has as its target B2. Put plainly: SPR.

B1: W1S4 peptide (human CD11a-based) (peptide)
peptide: Ac-TGHCLP-NH2
Take B1: in assay [1], the Kd was ~10 nM.

B2: the Kd in assay [1] is ~10 nM.

In the case of B3, the “KD relative to the KD of LtxA for the other peptides” value in assay [2] is ~2 fold.

B4: W2S1 peptide (human CD11a-based) (peptide)
peptide: Ac-VTLRGSNYTSKYLGMTLATDP-NH2
For the molecule B4, the dissociation constant Kd in assay [1] is ~10 nM.

B5: W2S2 peptide (human CD11a-based) (peptide)
peptide: Ac-TDGSILACDPG-NH2
On to B5, for which the Kd in assay [1] was ~10 nM.

B6: W2S3 peptide (human CD11a-based; identical in murine CD11a) (peptide)
peptide: Ac-LSRTCDQNT-NH2
On to B6, for which the Kd in assay [1] is ~10 nM.

As usually defined, the Kd is the free concentration of one partner at which half of the binding sites on the other are occupied at equilibrium, for simple one-to-one binding.
